Measured values: US20240059762A1 (SINGLE CELL TECHNOLOGY, published 2024)

B1: SCT-Pa06 (antibody, mouse IgG1, kappa, V domains shown)
VH: QVTLKESGPGILQPSQTLSLTCSFSGFSLSTYGMGVGWIRQPSGKGLEWLANIWWNDDKNYNSALKSRLTISKDTSNNQLFLRISSVDTADTATYFCAQIPAYYSNSWFAYWGHGTLVTVSA
VL: ENVLTQSPAIMAASPGEKVTMTCSASSSVSSGNFHWYQQKPGTSPKLWIYRTSNLASGVPARFSGSGSGTSYSLTISSMEAEDAATYYCQQWSGYPYTFGSGTKLKIKR
B2: SCT-Pa01 (antibody, mouse IgG1, kappa, V domains shown)
VH: QVTLKESGPGILQPSQTLSLTCSFDGFSLSTFGMGVGWIRQPSGRGLEWLAHIWWDDDKNYKPALKSRLTISKDTSKNQVFLKIANVDTADTATYYCTRMREDSSDYVYYIMDYWGQGTSVIVAS
VL: QIVLTQSPSIMSASPGEKVTISCSASSSVSYMYWYQQKPGSSPRPWIYRTSNLASGVPARFSGSGSGTSYSLTITSMEAEDAATYYCQLYHSYPPTWTFGGGTKLEIKR
B3: SCT-Pa09 (antibody, mouse IgG1, kappa, V domains shown)
VH: QVQLQQPGAELVKPGTSVRLSCQASGYTFTSSWIHWVKQRTGQGLEWIGEISLTNGDINYNEKFTSKATLTVDKSSSTAYMQLSSLTSEDSAVYYCTIIPDGYSLYWYFDVWGAGTTVTVSS
VL: QIVLSQSPPILSASPGARVTMTCRASSSVNYMHWYQQKPGSSPKPWIYATSNLASGVPVRFSGSGSGTSYSLTISRVEAEDAATYYCQQWSSNPPTFGGGTKLEIKR
B4: SCT-Pa19 (antibody, mouse IgG1, kappa, V domains shown)
VH: QVQLQQPGAELVRPGSSVKLSCKASGYTFTNYWMLWVKQRPMQGLEWIGSIDPSDSETHYNQKFKDKATLTVDKSSSTAYMRLGSLTSEDSAVYYCARDSYGWYFDVWGTGTTVTVSS
VL: DIVMTQSQKFMSTSVGDRVSVTCKASQNVGSNVAWYQQKSGQSPKALIYSASYRYSGVPDRFTGSGYGTDFTLTISNVQSEDLAEYFCQQYNNYPLTFGAGTKLELKR
B5: SCT-Pa05 (antibody, mouse IgG1, kappa, V domains shown)
VH: EVQLQQSGAELVKPGASVKLSCTTSGFNIKDYYFHWVKQRTEQGLEWIGRIDPEDGETEYAPKFRDKATITADTSSNTAYLQLSSLTSEDTAIYYCARSLYYWGQGTTLTVSS
VL: DIVMTQSPSSLSVWAGEKVTMSCKSSQSLLNSGDQKNYLTWYQQKPGQSPKLLIYETSTRDYGVPDRFTGSGSGADFTLTISSVQAEDLAVYYCLNDLTYPLTFGAGTKLELKR
B6: SCT-Pa03 (antibody, mouse IgG1, kappa, V domains shown)
VH: QVQLKQSGAELVRPGASVKLSCKASGYTFTDYYINWVKQRPGQGLEWIARIYPGNNYAYYDEKFKGKATLTAEKSSSTAYMQLSSLTSEDSAVYFCAKDDGYRFAYWGQGTLVTVSA
VL: DIQMTQSSSYLSVSLGGRVTITCKASDHINNWLAWYQQKPGNAPRLLISGATSLETGVPSRFSGSGSGKDYTLSITSLQTEDVATYYCQQYWSTPPTFGGGTKLEIKR
B7: SCT-Pa15 (antibody, mouse IgG1, kappa, V domains shown)
VH: QVQVKQSGPGLVQPSQSLSITCTVSGFSSTSYAIHWVRQSPGKGLEWLGVIWSGGTTDYNAAFISRLSFSKDNSKSQLFFKMNSLQADDTAMYYCARGNYYGMDYWGQGTSVTVSS
VL: DIVVTQSPASLAVSLGQRATISCRASESIDYDGDSYVNWYQQKPGQPPNLLIYAASNLESGIPARFSGGGSGTDFTLTIHPVEEEDAATYYCLQSYETPWTFGGGTKLEIKR
B8: SCT-Pa17 (antibody, mouse IgG1, kappa, V domains shown)
VH: QVQLQQPGAELVKPGASVKLSCKASGYAFTSSWINWVKRRPGQGLEWIGNVYPRSSSPNYNEKFKGKATLTVDTSSSTAYMQLSSLTSDDSAVYFCARGYGSYWYFDVWGAGTSVTVSS
VL: DIQMTQSSSSFSVSLGDRVTITCKASEDIYNRLAWYQQKPGNAPRLLISGATTLETGVPSRFSGSGSGKDYALSITSLQTEDVSTYYCQEYWSLSPTFGGGTKLEIKR
B9: SCT-Pa20 (antibody, mouse IgG1, kappa, V domains shown)
VH: QVQLQQPGAELVKPGASVKLSCKASGYTFTDYWINWVKQRPGQGLEWIGNIYPGSSDTNYNEKFKRKATLTVDTSSSTAYMQLSSLTSDDSAVYYCARRPLFHAMDYWGQGTSVTVSS
VL: DIVLTQSPASLAVTLGQRATISCKASQSINYNGDNYMHWFQQKPGQPTKLLIYTASNLESGVPDRFSGSGSGTDFTLNIHPVEEEDAATYYCQQSKEFPWTFGGGTKLEIKR
B10: SCT-Pa16 (antibody, mouse IgG1, kappa, V domains shown)
VH: QVQLQQPGTELVKPGASVKLSCKASGYTFTSYWMHWVKQRPGQGLEWIGSVNPSNGGANYNEKFKNKATLTVDKSSSTAYMQLSSLTSEDSAVYYCARRNGFPYYFDYWGQGTTLTVSS
VL: DIVMTQSQKFVSTSVGDRVSVTCKASQNVGTNVVWYQQKPGQSPKPLIYSASYRYSGVPDRFTGSGSGTDFTLTISNVQSEDLADYFCHQYNSSPLTFGVGTKLELKR
B11: SCT-Pa07 (antibody, mouse IgG1, kappa, V domains shown)
VH: EVQLQQSGPELVKPGDSVKMSCKASGYTFTDYYMDWVKQSHGKSLEWIGYIYTNNGDTNYNQKFKGKATLTVDKSSSTAYMELHSLTSEDSAVYYCASLYYSNFFDSWGQGTTLTVSS
VL: ENVLTQSPAIMSATLGEKVTVSCRARSNVKYMYWYQQKSGASPKLLIYYTSNLASGVPARFSGSGSGTSYSLTISSVEAEDAATYYCQQFTSSPFTFGSGTKLEIKR
B12: SCT-Pa14 (antibody, mouse IgG1, kappa, V domains shown)
VH: EVQLQQSGAELVSPGASVKLSCTASGFNIKDDYMHWVKQRPEQGLEWIGRIDPANGNTKYAPKFQDKATITADTSSNTAYLQLSSLTSEDTAVYYCFYSFYIPYTMDFWGQGTSVTVSS
VL: ENVLTQSPAIMSATLGEKVTMSCRASSNVKYMYWYQQKSGASPKLWIYYTSNLTSGVPARFSGSGSGTSYSLTISSVEAEDAATYYCQQFTSSPYTFGSGTKLEIKR
B13: SCT-Pa11 (antibody, mouse IgG1, kappa, V domains shown)
VH: EVQLQQSGPELVKPGASVKMSCKASGYTFTSYVIHWVKQKPGQGLEWIGYINPYNDGTEYNEKFKGKATLTSDKSSSTAYMELSSLTSEDSAVYYCSRDDYNNRFAYWGPGTLVTVSA
VL: DIQMTQSPASLSASVGETVTITCRPSENIYSYLAWYQQKQGKSPQLLVYNAKTLVEGVPSRFSGSGSGTQFSLKINSVQPEDCGSYYCLHHFGTPWTFGGGTILEIKR
B14: SCT-Pa04 (antibody, mouse IgG1, kappa, V domains shown)
VH: EVQLQQSGPELVKPGASVKMSCKASGYSFTSYVMHWVKQKPGQGLEWIGYINPYNDGTKYNEKFKGKATLTSDKSSSTAFMDLSSLTSDDSAVYYCSRDDYSNPPFAYWGQGTLVTVSA
VL: SIVMTQTPKFLLVSAGDRITITCKASQSVSNNVAWYQQKPGQSPTLLISYASNRFTGVPDRFTGSGYGTDFTFTISIVQAEDLAVYFCQQDYDSPYTFGGGTKLEIKR
B15: SCT-Pa08 (antibody, mouse IgG1, kappa, V domains shown)
VH: QVQLHQSGAELVKPGASVKLSCKASGYTFTEYSIHWVKQRSGQDLEWIGWFNPGTGSIKYNEKFKDKATLTADKSSSTVYMELSRLTSEDSAVYFCARHGGRWVIQWNFDVWGTGTTVTVSS
VL: DIVMSQSPSSLAVSVGEKVTMSCKSSQNLLYSSNQKNFLAWYQQRPGQSPKLLIYWASTRESGVPDRFTGSGTGTDFTLTISSVKAEDLAVYYCQQYYRYPFTFGSGTKLEIKR
B16: SCT-Pa02 (antibody, mouse IgG1, kappa, V domains shown)
VH: QMQLKQSGPGLVQPSQSLSITCTVSGFSLTSYGVHWVRQSPEKGLEWLGVIWSGGGTDYNAAFISRLSISKDNSKSQVFLKMSSLQTDDTAIYYCARGAYYSLDYWGQGTTLTVSS
VL: DIVLTQSPASLAVSLGQRATISCRASESVDYDGDNYMNWYQQKPGQSPKLLIYATSNLESRIPARFSGSGSGTEFTLNIHPVEEEDAATYYCLQSYDVPYTFGSGTKLEMKR
B17: SCT-Pa10 (antibody, mouse IgG1, kappa, V domains shown)
VH: QVQLQQSGPELVKPGASVKISCKASGYAFSTSWMNWMKQRPGKGLEWIGRIYPGDGETNYNGKFKGKATLTADKSSSTAYMQLSSLTSDDSAVYFCARGANGDYLFYLDYWGQGTTLTVSS
VL: DIQMTQTTSSLSASLGDRVTISCSASQDISDFLNWYQQKPDGTVKLLIYYTSSLHSGVPSRFSGSGSGTDYSLTINNLEPEDIATYYCQQYSKLPYTFGGGTKLEIRR
B18: SCT-Pa18 (antibody, mouse IgG1, kappa, V domains shown)
VH: QVQLQQPGAELVKPGASVKLSCKASGYTFTSYWMQWVKQRPGQGLEWIGEIAPSDSYTNYNQKFKGKATLTVDTSSSTAYMQLSSLTSEDSAVYYCAGGDYYGYDVKTWFAYWGQGTLVTVSA
VL: DIQMTQTTSSLSASLGDRVTISCSASQDISNYLNWYQQKPDGTVKLLIYYTSSLHSGVPSRFSGSGSGTGYSLTISNLEPEDIATYYCQQYSKLPYTFGGGTKLEIKR
B19: SCT-Pa12 (antibody, mouse IgG1, kappa, V domains shown)
VH: QVQLQQSGAELARPGASVKLSCKASGYSFTSYGISWVKQRTGQGLEWIGDIYPRSGNTDYNEKFKGKATLTADKSSSTANMQLSSLTSEDSAIYFCARSGDGYLYAMDYWGQGTSVTVSS
VL: DIQMTQTTSSLSASLGDRVTISCRASQDISNYLNWYQQKPDGTVKLLIYYTSRLHSGVPSRFSGSGSGTDYSLTISNLEPEDIAPYYCQQYSKLPYTFGSGTKLEIKR

molecular target: T1, Recombinant SARS-CoV-2 N protein His tagged (SARS-CoV-2, UniProt P0DTC9 1-419); assay: BLI (Octet Red 96E), mAb on anti-mouse Fc biosensor, N protein in solution, global 1:1 fit
T1 construct: also called nucleocapsid (N) protein; recombinant HIS tagged SARS-CoV-2 N protein

In order of falling Kd:
1. B6  2.78 nM
2. B10  1.49 nM
3. B16  1 nM
4. B7  0.994 nM
5. B8  0.939 nM
6. B15  0.897 nM
7. B19  0.649 nM
8. B1  0.504 nM
9. B17  0.335 nM
10. B5  0.289 nM
11. B18  0.228 nM
12. B11  0.188 nM
13. B2  0.181 nM
14. B12  0.128 nM
15. B13  0.111 nM
16. B3  0.0531 nM
17. B14  0.0328 nM
18. B4  0.0283 nM
19. B9  0.00537 nM

In order of falling koff:
1. B10  0.00154 s⁻¹
2. B7  0.000862 s⁻¹
3. B15  0.000772 s⁻¹
4. B16  0.00073 s⁻¹
5. B6  0.000597 s⁻¹
6. B8  0.000461 s⁻¹
7. B19  0.000278 s⁻¹
8. B17  0.000247 s⁻¹
9. B5  0.00018 s⁻¹
10. B1  0.00017 s⁻¹
11. B18  0.000127 s⁻¹
12. B11  8.63e-05 s⁻¹
13. B2  8.01e-05 s⁻¹
14. B12  7.23e-05 s⁻¹
15. B13  5.75e-05 s⁻¹
16. B3  2.67e-05 s⁻¹
17. B14  1.64e-05 s⁻¹
18. B4  1.26e-05 s⁻¹
19. B9  3.09e-06 s⁻¹

In order of falling kon:
1. B10  1.04e+06 M⁻¹ s⁻¹
2. B7  868000 M⁻¹ s⁻¹
3. B15  860000 M⁻¹ s⁻¹
4. B17  738000 M⁻¹ s⁻¹
5. B16  730000 M⁻¹ s⁻¹
6. B5  624000 M⁻¹ s⁻¹
7. B9  576000 M⁻¹ s⁻¹
8. B12  566000 M⁻¹ s⁻¹
9. B18  557000 M⁻¹ s⁻¹
10. B13  517000 M⁻¹ s⁻¹
11. B3  503000 M⁻¹ s⁻¹
12. B14  498000 M⁻¹ s⁻¹
13. B8  491000 M⁻¹ s⁻¹
14. B11  458000 M⁻¹ s⁻¹
15. B4  444000 M⁻¹ s⁻¹
16. B2  442000 M⁻¹ s⁻¹
17. B19  428000 M⁻¹ s⁻¹
18. B1  337000 M⁻¹ s⁻¹
19. B6  215000 M⁻¹ s⁻¹
